{
  "source": "paper PMC7948595",
  "about": "“1,6-Hexanediol, commonly used to dissolve liquid–liquid phase separated condensates, directly impairs kinase and phosphatase activities” (The Journal of Biological Chemistry, 2021)",
  "binders": {"B1": {"name": "Cyclin H (1–323) (natural protein, human, UniProt P51946 1-323, looked up)", "chain": "MYHNSSQKRHWTFSSEEQLARLRADANRKFRCKAVANGKVLPNDPVFLEPHEEMTLCKYYEKRLLEFCSVFKPAMPRSVVGTACMYFKRFYLNNSVMEYHPRIIMLTCAFLACKVDEFNVSSPQFVGNLRESPLGQEKALEQILEYELLLIQQLNFHLIVHNPYRPFEGFLIDLKTRYPILENPEILRKTADDFLNRIALTDAYLLYTPSQIALTAILSSASRAGITMESYLSESLMLKENRTCLSQLLDIMKSMRNLVKKYEPPRSEEVAVLKQKLERCHSAELALNVITKKRKGYEDDDYVSKKSKHEEEEWTDDDLVESL", "notes": "Cyclin H, human, residues 1-323; also called CycH"}},
  "molecular_target": "T1, GST-Cdk7 (2–346) (human, UniProt P50613 2-346)",
  "T1 construct": "Cdk7, human, residues 2-346",
  "T1 sequence (P50613 2-346)": "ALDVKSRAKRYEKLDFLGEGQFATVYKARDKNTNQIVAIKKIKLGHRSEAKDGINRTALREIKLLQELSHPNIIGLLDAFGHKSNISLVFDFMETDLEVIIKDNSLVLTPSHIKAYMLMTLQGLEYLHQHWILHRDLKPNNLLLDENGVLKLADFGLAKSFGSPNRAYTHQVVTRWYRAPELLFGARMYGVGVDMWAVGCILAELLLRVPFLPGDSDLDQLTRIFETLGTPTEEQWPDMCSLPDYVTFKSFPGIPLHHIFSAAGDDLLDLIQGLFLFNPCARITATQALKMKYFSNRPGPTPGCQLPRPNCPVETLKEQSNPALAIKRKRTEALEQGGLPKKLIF",
  "assay": "pull-down; 10 µg of purified CDK–cyclin complex immobilised by its GST-tagged subunit on GSH 4B sepharose beads in 100 µl PBS; incubated 1 h in PBS or PBS with 5% 1,6-hexanediol; washed three times; eluted in SDS-sample buffer; Coomassie-stained SDS-PAGE",
  "settings": "both partners purified",
  "data": [
    {"binder": "B1", "values": [
      {"measurement": "binding result", "result": "binds"}
    ]}
  ]
}
